According to the nanobody polyreactivity screen of Harvey et al. (2022):

Assay: yeast display, Sf9 membrane polyspecificity reagent, FACS + sequencing; frameworks hold sequencing errors
Summary of the method: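 Galactose induction of a Saccharomyces cerevisiae BJ5465 synthetic nanobody display library ran 36–48 hours. The cells were then stained for 1 hour at 4 °C with 10% biotinylated, detergent-solubilized Sf9 membrane reagent, pulled down on streptavidin microbeads and FACS-sorted into low and high (top ~1%) gates on expression and reagent-binding fluorescence. Labels for polyreactivity follow the gate of origin.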

QVHLVDSGVGLDQAGGILRLSCAASGSTFGFYALGWYRQSPGKERELVAAINSTGGSTYYADSVKGRFTISRDNAKNTVYLQMNSLKPEDTAVYYCNVDLYSLYDWGQGTQVTVSS
polyreactivity (PSR sort gate): high polyreactivity

QVQLVESGGGLVQAGGSLRLICAASGSIFTVYAMGWYRQAPGKERELVADIDYGGTYYADSVKGRFTISRDNAKNTVYLQMNSLKPEDTAVYYCAALAALDYGQLYLDDDDYWGQGTQVTVSS
polyreactivity (PSR sort gate): low polyreactivity

QVQLVESGGGLVQAGGSLRLSCAASGRIFPWNTMGWYRQAPGKERELVAGINNGDRTYYADSVKGRFTISRDNAKNTVYLQMNSLKPEDTAVYYCAVDTWYFLFQYGYYQEGDYWGQGTQVTVSS
polyreactivity (PSR sort gate): low polyreactivity

QVQLVESGGGLVQAGGSLRLSCAASGIFGYNAMGWYIQAPGKERELVAAITSSGTSTYYADSVKGRFTISRDNAKNTVYLQMNSLKPEDTAVYYCAALHSGTWTGYGYWGQGTQVTVSS
polyreactivity (PSR sort gate): low polyreactivity

QVQIVESGGGLVQAGGSLRLSCAASGRTFVTYAMGWYRQAPGKERELVAAISRRGGSTYYADSVKGRFTISRDNAKNTVYLQMNSLKPEDTAVYYCAADPTYRTKFGYWGQGTQVTVSS
polyreactivity (PSR sort gate): high polyreactivity

QVQLVESGGGLVQAGGSLRLSCAASGSIFNRYAMGWYRQAPGKERELVAAIRSGDNTNYADSVKGRFTISRDNAKNTVYLQMNSLKPEDTAVYYCAKRTYYRSRTVGWGKMDYWGQGTQVTVSS
polyreactivity (PSR sort gate): high polyreactivity

QVQLVESGGGLVQAGGSLRLSCAASGRTFKPYALGWYRQAPGKERELDAAISTGGSTNYADSEKGRFTISRDNAKNSVYLQMNSLKPEDTAVYYCAADYFLYSYFLGLMDYWGQGTLVTVSS
polyreactivity (PSR sort gate): low polyreactivity

QVQLVESGGGLVKAGGSLRLRCAAAGLILYPYAMGWYRQAPGKESELVAAITSDGSTYYADSVKGRFTISRVNAKNTVYLQMNSLKQEDTAVYYCAVVVAYFDDDYGLSWFYEYDYWGQGTQVTVSS
polyreactivity (PSR sort gate): low polyreactivity

QVQLQESGVGLVQASGSIFHEPNMGSYRQAPGKERELVAGISSGANTYYADSVKGRFTISRDNAKNTVYLQMNSLKPEDTAVYHCAVVVHLYTDLRYWGQDTQVTVSS
polyreactivity (PSR sort gate): high polyreactivity

QVQLVESGGGLVQAGGSLRLSCAACGRISTAYAMGGYRQAPGTERELVAAISSGTSTTYADSVKGRFTISRDNAKNTVYLQMNSLKPEDTAVYYCAAPGRYGEYDYWGQGTQVTVSS
polyreactivity (PSR sort gate): low polyreactivity

QVQLVESGGGLVQAGGSLRISCAASGSTFFYYSMGWYRQAPGKEWEFVAHITSSDASTHYADSVKGRFTISRDNAKNTVNLQMNSQQPEDTAVYYCAADRYCGQANYYWGQGTQVTVSS
polyreactivity (PSR sort gate): low polyreactivity

QVQLVESGGGLVQAGGSLRLSCAASGRIFYFNARGWYRQAPGKERELVAAITSGGSTYYADSVKGRFTISRDNAKNTVYLQMNSLKPEDTAVYYCATDWPHWRYVYWFDYWGQGTQVTVSS
polyreactivity (PSR sort gate): low polyreactivity

QVQLVDSGGGLVQAGGSLPLSCAASGSIFDDYAMGWNRKAPGKERELVAAISGGVSTNYADSVKGRFTISRDNAKKTDYLQINSLKPEDTAVYYCNADYARAYIHEYWGQGTQVTVSS
polyreactivity (PSR sort gate): low polyreactivity

QVQLVESGGGLVQAGGSLRLSCAASGRIFLYYTMGWYRQAPGKERELVAAITRSGGSTYYADSVKGRFTISRDNAKNTVYLQMISLKPEDTAVYYGADRYWERYRAFNYWGQGTQVTVSS
polyreactivity (PSR sort gate): high polyreactivity

QVQLVESGGGLVQAGGSLRLSCAASGSTFADYAMGWYRQAPGKERELVAAITSSGGDTYYADSVKGRFTISRDNAKNTVYLQMNSLKPEDTAVYYCAVVDTLYDSKYDYWGQGTQVTVSS
polyreactivity (PSR sort gate): low polyreactivity

QVQLVESGGGLVQAGGSLRLSCAASGRIFAYNTMGWYRQAPGKERELVAVITSGGSTNYADSVKGRFTISRDNAKNTVYLQMNSLKPEDTAVYYCNADPRLRQTRDYWGQGTQVTVSS
polyreactivity (PSR sort gate): high polyreactivity

QVQLVESGGGLVQAGGSLRLSCPASGLIIGVYAMGWYRQEPGKERELVAAITDGGSTYYADSVKGRFTISRDNAKNTVYLQMNSLKPEDTAVYYCNAEFRSSDYDYWGQGTQVTVSS
polyreactivity (PSR sort gate): low polyreactivity

QVQLVESGGGLVQAGGSLRLSCAASGFTFSRYAMGWYIQAPGKERELVAAITRGGSTNYADSVKGRFTISRDNAKNTVYLQMNSLKPEDTAVYYCAVRIRYSTNAYYYWGQGTQVTVSS
polyreactivity (PSR sort gate): high polyreactivity

QVQLVESGGGLVQAGGSLRLSCAASGRIFYGYAMGWYRQAPGKDRELVATISRSGARTHYADSVKGRFTISRDNAKNTVYLQMNSLKQEDTAVYYCAADVYLSRYEKYGYWGQGTQVTVSS
polyreactivity (PSR sort gate): high polyreactivity

QVQLVESGGGLVQAGGSLRLSCAASGRIFVNYAMGWYRQAPGKEREFVAGIRVNGGSTYYADSVKGRFTISRDNAKNTVYLQMNSLKPEDTAVYYCAKAYPGTYREYDYWGQGTQVTVSS
polyreactivity (PSR sort gate): high polyreactivity

QVQLVESGGGFVQAGGSLLVSCAASGFTFRYSAMGWYRQAPGKERELVAAIDQNSGRTYYADSGKGRFTISRDNAKNTVYLQMNSLKPEDTAVYYCNVGYPKVPAGSYDYWGQGTQVTVSS
polyreactivity (PSR sort gate): high polyreactivity

QVQLVESGGGLVQAGGSLRLSCAASGFTFYYYTMGWYRQAPGKQRELVAAITWRGGSTNYADSVKGRFTISRDNAKNTVFLQMNSLKPEDTAVYYCAAVSYWFWPGMDYWGQGTQVTVSS
polyreactivity (PSR sort gate): low polyreactivity

QVQLVESGGGLVQAGGRLRLSCAASGIIFGGYSMGWYRQAPGKERELVADITWSGGSTTYADSVKGRFTISRDNAKNTVYLQMNSLKPEDTAVYYCAAEDYYIYREPYDYWGQGTQVTVSS
polyreactivity (PSR sort gate): low polyreactivity

QDQLVESGGGLVQAGGSLRLSGDASGSTFSKYVMGWYRQAPGKERELVAAISGGDRTYYADSVKGRFTISRDNAKNTVYLQMNSLKPEDTAVYFCAAEVLKTRWSYDYWGQGTQVTVSS
polyreactivity (PSR sort gate): high polyreactivity

HVQLVESGGGLVQAGGSLRLSCAASGRIFYYNAMGWYRQAPGKERELVAVITWRGGTTYYADSVKGRFTTSRDTAKNTVYLQMNSLKPEDTAVYYCAADTGAFDGYYRQPRIRFDYWGQGTQVTVSS
polyreactivity (PSR sort gate): high polyreactivity

QVQLVESGGGLVRAGGSLRLSCAASGSTFDINAMGWYRQAPGKERELVASITFSGGSTYYADSVKGRFTISRDNAKNTVYLQMNSLKPEDTAVYYCNKDEPQFSSYLYSFYPGYDYWGQGTQVTVSS
polyreactivity (PSR sort gate): low polyreactivity

QVQLVESGGGLVQAGGSLRLSCAASGRIFRAYAMGWYRQAPGKERELVAVITGSGGSTYYADSVKGRFTISRDNAKNTVYLQMNSLKPEDTAVYYCAAPVHTASGRWVPGYYYWGQGTQVTVSS
polyreactivity (PSR sort gate): high polyreactivity

QVQLVESGGGLVQAGGSLRLSCAASGRTFYSFNAMVCYRQAPVKERELVAAIVGDGGITYYADSVKGRFTISRDNANNTVFLQMNSLKPEDTAVYYCAAETLHSSDGEDDYWGQGTQVSVSS
polyreactivity (PSR sort gate): low polyreactivity

QVQLVESGGGLVQAGGSLRLSCAASGSIFRIYVMGWYRQAPGKERELVAAITNDGSTSYADSVKGRFTISRDNAKNTVYLQMNSLKPEDTAVYYCNAYRRRATYNGDYWGQGTQVTVSS
polyreactivity (PSR sort gate): high polyreactivity

QVQLVESGGGLVQEGGSLRLSCAASGSTSRKYTMGWYRQAPGKERELVATISWSGGSTNYADSVKGRFTISRDNAKNNVYLQMNSLIPEDTAVYYCNAYVSPRYRGTRYYYWGQVTQVTVSS
polyreactivity (PSR sort gate): high polyreactivity

QVQLVESGGGLVQAGGSLRLSCAASGRTFTFNAMGWYRQAPGKERELVARIDWRGITYADSVKGRFTISRDNAKNTVYLQMNSLKPEDTAVYYCAAVWLHIRGFFFQYDYWGQGTQVTVSS
polyreactivity (PSR sort gate): low polyreactivity

QVQLVESGGDLVQAGGSLRLSCAASGITFVYNAMGWYRQAPGKERELVAGITWSGSSTYYADSVKGRFTISRDNAKNTVYLQMNSLKPEDTAVYYCAAYLYDRTTRYTYYYWGQGTQVTVSS
polyreactivity (PSR sort gate): high polyreactivity

QVQLVESGAGLVQAGGSLRLSCAASGSTFWYYAMGLYRQAPGKERELVAAITRDGNTYYADSVKGRFTISRDNAMNSFYLQMNSLKREDTAVYYCAAGFYLLGKYDYWGQGTQVTVSS
polyreactivity (PSR sort gate): high polyreactivity

QVQLVESGGGLVQAGGSLRLSCAASGLTFKVYAMGWYRQAPGKERELVAAISWSGGSTYYADSVKGRFTISRDNAKNTVYLQMNSLKPEDTAVYYCAVEPSYYVVFFPYEYWGQGTQVTVSS
polyreactivity (PSR sort gate): low polyreactivity

HVQLVESGGGLVQAGGSLRLSCAASGRTFVNYTMGWYRQAPGKVRELVAAIRYRDGSTYYADSVKGRFTISRDNAKKTVYLQMNSLKPEDTAVYYCNNRITQVGDYIYDYWRQGTQVTVSS
polyreactivity (PSR sort gate): low polyreactivity

QVQLVESGGGLVQAGGSLRLSCASSGNTFVAYAMGWYRQAPGKERELVAGITRGGTTYYADSVKGRFTISRDNAKNTVYLQMNSLKPEDTAVYYCAARLGYRYNYWGQGTQVTVSS
polyreactivity (PSR sort gate): high polyreactivity

QVQLVESGGGLVQAGGILRLSCAASGSTFWPYAMGWYRQAPGKERELVATNRGGGTSTYYADSVKGRFTISRDNAKNTVYLQMNSLKPEDTAVYYCAARGFFTGSYPGYYYWGLGTQVTVSS
polyreactivity (PSR sort gate): high polyreactivity

QVQLVESGVGLVQAGGSLSLSSAASGSIFGYYAMGWYRQAPGKERELVAAITSDGDTYYADSVKGRFTISRDNAKNTVYLQINSLKPEDTAVYYCNATYGGPYYIQNDYWGQGTQVTVSS
polyreactivity (PSR sort gate): low polyreactivity

QVQLVESGGGLVQAGGSLRLSCAASGFTFDFYDMGWYRQAPGKERELVAAISWDGGTTYYADSVKGRFTISRDNAKNTVYLQMNSLKPEDTAVYYCAADDWVYVPTRAWYLYEYWGQGTQVTVSS
polyreactivity (PSR sort gate): low polyreactivity

QVQLVESGGGLVQAGGSLRLSCAASGNIFPAYAMGWYRQAPGKERELVAAISKSGGRTYYAESVKGRFTISRDNAKNTVYLQMNSLKQEDTAVYYALLTVRRAVPYSVRYDYWGQGTQVTVSS
polyreactivity (PSR sort gate): high polyreactivity

QVQHVESGGGLVQAGGSLRLSCAASGSIFTGNAMGWYRQAPGKEREFVAAITNGGITNYADSVKGRFTISRDNAKNTVYLQMNSLKPEDTAVYYCAADYVDFYSFRRFDYWGQGTQVTVSS
polyreactivity (PSR sort gate): low polyreactivity

QVQLVESGGGLVQAGGSLRLSCAASGRNFYYYAMGWYRQAPGKERELVATITGGGRTYYADSVKGRFTISRDNAKNTVYLQMHSLHPEDTAVYYCAAQYGGLSYRYDYWGQGTQVTVSS
polyreactivity (PSR sort gate): high polyreactivity

QVQLVESGRGLVQAGGSLRLSCAASVNIFRGYTMGRYRQAPGTERELVATITWNGVSTFYADSVKGRFTISRDNAKNTVYLQMHSLKPEDTAVYYCAAYYPSHDYSGFWSDTYEYWGQGTQVTVSS
polyreactivity (PSR sort gate): low polyreactivity
